The target of assay [1] is CHIKV VLP (chikungunya virus (CHIKV), UniProt Q8JUX5 810-1248; Q8JUX5 326-748).
Assay [2] deals with T1, WEEV Env-pseudotyped lentiviral reporter virus (Western equine encephalitis virus (WEEV), UniProt P13897 798-1236; P13897 320-742).
T1 sequence 1: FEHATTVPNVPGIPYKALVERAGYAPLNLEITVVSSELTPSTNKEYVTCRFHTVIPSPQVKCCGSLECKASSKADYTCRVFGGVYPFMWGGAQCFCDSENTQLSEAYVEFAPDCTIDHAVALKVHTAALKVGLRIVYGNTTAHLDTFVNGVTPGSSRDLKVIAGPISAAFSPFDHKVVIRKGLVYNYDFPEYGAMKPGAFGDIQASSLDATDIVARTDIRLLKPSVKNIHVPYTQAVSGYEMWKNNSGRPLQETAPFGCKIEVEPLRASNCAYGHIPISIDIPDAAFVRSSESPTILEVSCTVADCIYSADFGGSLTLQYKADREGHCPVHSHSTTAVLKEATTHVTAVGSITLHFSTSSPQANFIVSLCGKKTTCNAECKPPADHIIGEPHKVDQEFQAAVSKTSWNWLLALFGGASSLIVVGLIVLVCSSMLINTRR
T1 sequence 2: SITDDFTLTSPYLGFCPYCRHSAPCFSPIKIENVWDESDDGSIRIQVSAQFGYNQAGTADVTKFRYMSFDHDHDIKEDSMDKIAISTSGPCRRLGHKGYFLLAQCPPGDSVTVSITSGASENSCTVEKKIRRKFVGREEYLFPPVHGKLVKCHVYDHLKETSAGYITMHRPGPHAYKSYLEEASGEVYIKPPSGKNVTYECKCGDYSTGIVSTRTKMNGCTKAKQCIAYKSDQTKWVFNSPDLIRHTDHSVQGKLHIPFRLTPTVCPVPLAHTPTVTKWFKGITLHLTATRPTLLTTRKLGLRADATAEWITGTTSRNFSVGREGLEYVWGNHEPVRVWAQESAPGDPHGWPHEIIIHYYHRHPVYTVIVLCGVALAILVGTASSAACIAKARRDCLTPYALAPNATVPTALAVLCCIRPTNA
As to the kind of experiment: cell-based or functional assay.

The target in assay [3] is T2, EEEV Env-pseudotyped lentiviral reporter virus (Eastern equine encephalitis virus (EEEV), UniProt P08768 799-1239; P08768 323-742).
T2 sequence 1: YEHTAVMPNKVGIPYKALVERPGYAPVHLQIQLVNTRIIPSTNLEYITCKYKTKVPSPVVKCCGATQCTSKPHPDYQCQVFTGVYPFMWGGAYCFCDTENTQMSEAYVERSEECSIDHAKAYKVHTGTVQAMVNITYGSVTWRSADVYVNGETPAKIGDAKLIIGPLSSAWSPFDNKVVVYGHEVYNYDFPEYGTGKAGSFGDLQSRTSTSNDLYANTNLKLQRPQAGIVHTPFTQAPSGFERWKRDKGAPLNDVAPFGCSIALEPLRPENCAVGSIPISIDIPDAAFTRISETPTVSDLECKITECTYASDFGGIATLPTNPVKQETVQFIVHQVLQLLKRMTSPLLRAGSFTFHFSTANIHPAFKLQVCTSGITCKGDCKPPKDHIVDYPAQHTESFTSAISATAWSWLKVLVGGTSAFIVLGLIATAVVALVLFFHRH
T2 sequence 2: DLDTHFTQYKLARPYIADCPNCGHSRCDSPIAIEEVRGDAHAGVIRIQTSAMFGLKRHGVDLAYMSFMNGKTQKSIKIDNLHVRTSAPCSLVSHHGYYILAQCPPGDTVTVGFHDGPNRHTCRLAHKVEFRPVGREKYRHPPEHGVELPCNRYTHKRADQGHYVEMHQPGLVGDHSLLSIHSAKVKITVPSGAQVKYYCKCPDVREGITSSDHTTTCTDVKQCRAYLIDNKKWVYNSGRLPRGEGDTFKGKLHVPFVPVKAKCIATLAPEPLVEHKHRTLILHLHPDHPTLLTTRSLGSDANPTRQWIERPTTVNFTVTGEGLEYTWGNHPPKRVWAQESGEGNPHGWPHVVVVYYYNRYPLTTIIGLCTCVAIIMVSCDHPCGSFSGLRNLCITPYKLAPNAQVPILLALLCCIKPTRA
As to the kind of experiment: cell-based or functional assay.

Assay [4] deals with T3, VEEV Env-pseudotyped lentiviral reporter virus (Venezuelan equine encephalitis virus …, UniProt P09592 813-1254; P09592 335-757).
T3 sequence 1: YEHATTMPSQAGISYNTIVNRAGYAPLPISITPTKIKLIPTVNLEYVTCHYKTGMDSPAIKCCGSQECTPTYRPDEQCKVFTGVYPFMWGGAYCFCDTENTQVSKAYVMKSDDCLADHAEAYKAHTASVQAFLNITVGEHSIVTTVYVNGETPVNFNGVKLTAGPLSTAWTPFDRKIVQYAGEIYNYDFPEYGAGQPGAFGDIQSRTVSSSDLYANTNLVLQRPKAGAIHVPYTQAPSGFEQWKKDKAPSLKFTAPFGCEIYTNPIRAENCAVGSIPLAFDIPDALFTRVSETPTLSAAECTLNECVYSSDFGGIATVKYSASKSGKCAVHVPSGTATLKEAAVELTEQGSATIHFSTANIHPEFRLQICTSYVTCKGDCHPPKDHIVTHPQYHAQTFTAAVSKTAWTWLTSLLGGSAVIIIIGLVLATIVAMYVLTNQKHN
T3 sequence 2: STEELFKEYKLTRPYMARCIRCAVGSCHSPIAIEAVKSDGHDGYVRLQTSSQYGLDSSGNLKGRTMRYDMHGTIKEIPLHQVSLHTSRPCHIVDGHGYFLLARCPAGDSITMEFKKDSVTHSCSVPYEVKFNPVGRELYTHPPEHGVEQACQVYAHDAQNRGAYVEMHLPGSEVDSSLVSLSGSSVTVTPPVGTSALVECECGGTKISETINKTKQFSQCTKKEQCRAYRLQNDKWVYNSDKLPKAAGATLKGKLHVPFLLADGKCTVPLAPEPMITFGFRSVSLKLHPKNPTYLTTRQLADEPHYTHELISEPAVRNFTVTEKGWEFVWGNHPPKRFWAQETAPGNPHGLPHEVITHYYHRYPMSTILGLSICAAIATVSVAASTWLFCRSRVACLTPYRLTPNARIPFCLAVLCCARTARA
The assay can be described thus: cell-based or functional assay.

Sequence of CHIKV VLP (Q8JUX5 810-1248 limits assumed, chain 1 of 2): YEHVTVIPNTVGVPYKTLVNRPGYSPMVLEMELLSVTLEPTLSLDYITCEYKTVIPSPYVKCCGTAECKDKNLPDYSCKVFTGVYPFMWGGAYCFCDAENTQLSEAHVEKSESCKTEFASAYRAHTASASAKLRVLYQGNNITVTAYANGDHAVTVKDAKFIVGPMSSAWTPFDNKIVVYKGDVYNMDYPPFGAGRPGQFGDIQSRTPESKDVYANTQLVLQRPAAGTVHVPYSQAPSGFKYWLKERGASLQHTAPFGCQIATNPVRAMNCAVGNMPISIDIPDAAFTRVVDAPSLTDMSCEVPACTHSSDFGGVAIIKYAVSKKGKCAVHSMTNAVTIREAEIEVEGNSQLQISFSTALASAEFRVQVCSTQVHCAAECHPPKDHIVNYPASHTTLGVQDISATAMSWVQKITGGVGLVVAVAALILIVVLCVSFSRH
Sequence of CHIKV VLP (Q8JUX5 326-748 limits assumed, chain 2 of 2): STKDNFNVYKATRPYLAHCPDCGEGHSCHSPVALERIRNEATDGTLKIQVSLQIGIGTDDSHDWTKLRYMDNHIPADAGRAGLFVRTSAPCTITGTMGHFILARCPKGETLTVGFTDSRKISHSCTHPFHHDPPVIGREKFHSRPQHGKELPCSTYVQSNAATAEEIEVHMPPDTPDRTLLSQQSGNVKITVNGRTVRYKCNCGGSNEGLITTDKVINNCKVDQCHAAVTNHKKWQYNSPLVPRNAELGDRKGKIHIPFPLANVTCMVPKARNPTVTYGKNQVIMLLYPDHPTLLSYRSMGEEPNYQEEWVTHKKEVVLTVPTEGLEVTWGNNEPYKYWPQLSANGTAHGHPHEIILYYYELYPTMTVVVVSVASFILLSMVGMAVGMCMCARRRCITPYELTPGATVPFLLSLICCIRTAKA

B1: SKT05 (antibody, V domains shown)
VH: EVQLVESGAGLVQPGGSLRLSCAASGFTFSDSWMSWVRQSPGKGLEWVGRIKGKPDGETAAYAASVKGRFSISRDDSKNTLYLQMNSLKTEDTAVYYCTRDDRTSCRRGVCYAAFHSWGQGVLVTVSS
VL: DIQMTQSPSSLSASAGDRVTLTCRASQAISFYLAWYQQKPGKAPKRLIYDASELQGGVPSRFSGSGSGTDFTLSINSLQPEDSATYFCLQYDSPPFTFGPGTKVEIKR
Broadly, the EC50 is the concentration at which the effect is half-maximal. A lower EC50 goes with an effect from little substance. In assay [1], B1 had an EC50 of 0.1 µg/mL. Besides, the “IC80, neutralization of Env-pseudotyped lentiviral reporter virus” value in assay [2] worked out at 0.07 µg/mL; in assay [3], 0.39 µg/mL; in assay [4] it was 0.06 µg/mL.

For the origin of these results see patent publication US20260199447A1 (US Dept. of Health and Human Services, published 2026).
